The text below walks through data of the supplement of paper PMC10567573.

The chains are these.
B1: DCAF4 (parent)
chain: TTKCVRQYEGHVNEYAYLPLHVHE
B2: LPCAT4 (parent)
chain: HDPLYGKLFSTYLRPPHTSRGTSQ
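Also: lentivirally expressed fusions sorted by FACS into six bins by GFP to DsRed ratio, PSI derived from sequencing read proportions per bin multiplied by bin number.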

One data set covers variants of B1. Kind of data set: protein stability index of a GFP-peptide fusion (GPS, HEK-293T) (PSI 1-6); higher = more stable. Conditions: c terminus: a fixed tail appended.
TTKCVDQYEGHVNEYAYLPLHVHE [R6D]: the protein stability index came out at 2.87. Take TTKCVRQYEGHVNEYAYLPLHVTE [H23T]: the protein stability index was 2.37. Consider TTKCVRQYEGHVNEYAYLPLHVPE [H23P], for which the protein stability index came to 3.32. Still for that read-out and setting: under TTKCVRQYEGHVNEYAYLPLHVYE [H23Y] stands 2.24. The same measure, in the same setting: under TTKMVRQYEGHVNEYAYLPLHVHE [C4M] stands 3.45; under TTKDVRQYEGHVNEYAYLPLHVHE [C4D], 3.76; under TTKCVRQYEGHVNEYAYLPLLVHE [H21L], 2.2. Still for that read-out and setting: under TTKCVRQYEGHCNEYAYLPLHVHE [V12C] stands 2.48; under TTKCVRQYEGHSNEYAYLPLHVHE [V12S], 2.78; under TTKCVRQYEGHGNEYAYLPLHVHE [V12G], 3.13. Consider TTKCVRQYEGHTNEYAYLPLHVHE [V12T], for which the protein stability index amounted to 2.85. As for TTKCVRQYEGHVNEYAYLPPHVHE [L20P], the protein stability index was 3.31.

Take TTKCVRQYEGHVNEYAYLPIHVHE [L20I]: the protein stability index was 2.74.

In the case of TTKCVRQYEGHVNEYAYLPKHVHE [L20K], the protein stability index came out at 2.8. In the case of TTKCVRQYEGHVNWYAYLPLHVHE [E14W], the protein stability index came out at 1.14.

On to TTKCVRQYEGHVNYYAYLPLHVHE [E14Y], for which the protein stability index came out at 1.64.

With TTKCVRQYEGLVNEYAYLPLHVHE [H11L], the protein stability index was 1.95. Still for that read-out and setting: under TTKCVRQYFGHVNEYAYLPLHVHE [E9F] stands 1.76.

As to TTKCCRQYEGHVNEYAYLPLHVHE [V5C], the protein stability index turned out to be 2. With TTKCNRQYEGHVNEYAYLPLHVHE [V5N], the protein stability index worked out at 2.27.

As to TTKCGRQYEGHVNEYAYLPLHVHE [V5G], the protein stability index worked out at 2.31. Still for that read-out and setting: under TTKCVRQYEGHVNEYAYLSLHVHE [P19S] stands 1.46; under TTKCVRQYEGHVNEYAYLPLHVHW [E24W], 2.67. Still for that read-out and setting: with TTKCVRQYEGHVNEVAYLPLHVHE [Y15V] the figure was 3.

On to TTKCVRQYEGHVNEQAYLPLHVHE [Y15Q], for which the protein stability index came to 3.32. Same read-out and setting: under TTKCVRQYEGHVNEKAYLPLHVHE [Y15K] stands 2.85; under TTKCVRQYEGHVSEYAYLPLHVHE [N13S], 2.78. As for TTKCVRQYEGHVYEYAYLPLHVHE [N13Y], the protein stability index stood at 2.09. For TTKCVRQYEGHVREYAYLPLHVHE [N13R], the protein stability index was 2.31.

As for TTKCVRQYEGHVNEYAYIPLHVHE [L18I], the protein stability index was found to be 2.26. With TTKCVRQYEGHVNEYAYPPLHVHE [L18P], the protein stability index stood at 2.75. For the variant TTKCVRQYEGHVNEYAYDPLHVHE [L18D], the protein stability index stood at 3.8. Consider TTKCVRQNEGHVNEYAYLPLHVHE [Y8N], for which the protein stability index came out at 3.31. As for TTKCVRQYEGHVNEYAPLPLHVHE [Y17P], the protein stability index turned out to be 3.82. Same read-out and setting: under TTKCVRQYEGHVNEYANLPLHVHE [Y17N] stands 3.08; under TTKCVRQYEGHVNEYADLPLHVHE [Y17D], 4.01. Same read-out and setting: with TTKCVRQYEGHVNEYDYLPLHVHE [A16D] the figure was 2.54. The same measure, in the same setting: with TTKCVRQYEGHVNEYIYLPLHVHE [A16I] the figure was 2.2; with TTKCVRQYEGHVNEYCYLPLHVHE [A16C], 2.44; with TTKCVRQYEGHVNEYGYLPLHVHE [A16G], 2.13. Turning to TTQCVRQYEGHVNEYAYLPLHVHE [K3Q], the protein stability index is 3.25.

Regarding TTLCVRQYEGHVNEYAYLPLHVHE [K3L], the protein stability index was found to be 2.6. The same measure, in the same setting: with CTKCVRQYEGHVNEYAYLPLHVHE [T1C] the figure was 1.9. Turning to TTKCVRCYEGHVNEYAYLPLHVHE [Q7C], the protein stability index is 2.15. Same read-out and setting: with TTKCVRWYEGHVNEYAYLPLHVHE [Q7W] the figure was 1.88; with TTKCVRQYEGHVNEYAYLPLHQHE [V22Q], 3.3. Same read-out and setting: under TTKCVRQYEGHVNEYAYLPLHCHE [V22C] stands 2.54; under TTKCVRQYEGHVNEYAYLPLHSHE [V22S], 3.24.

In the next data set the parent is B2. The data set is described as above. Conditions: c terminus: a fixed tail appended.
As for LDPLYGKLFSTYLRPPHTSRGTSQ [H1L], the protein stability index worked out at 4.22.

Take WDPLYGKLFSTYLRPPHTSRGTSQ [H1W]: the protein stability index was 2.38. The same measure, in the same setting: under NDPLYGKLFSTYLRPPHTSRGTSQ [H1N] stands 3.2; under QDPLYGKLFSTYLRPPHTSRGTSQ [H1Q], 3.18.

For KDPLYGKLFSTYLRPPHTSRGTSQ [H1K], the protein stability index turned out to be 3.32. The same measure, in the same setting: with PDPLYGKLFSTYLRPPHTSRGTSQ [H1P] the figure was 3.1. Still for that read-out and setting: with VDPLYGKLFSTYLRPPHTSRGTSQ [H1V] the figure was 4; with GDPLYGKLFSTYLRPPHTSRGTSQ [H1G], 2.88. As to RDPLYGKLFSTYLRPPHTSRGTSQ [H1R], the protein stability index is 3.09. The same measure, in the same setting: under SDPLYGKLFSTYLRPPHTSRGTSQ [H1S] stands 3.68.

For FDPLYGKLFSTYLRPPHTSRGTSQ [H1F], the protein stability index came to 2.12. Same read-out and setting: under CDPLYGKLFSTYLRPPHTSRGTSQ [H1C] stands 3.66. On the same count and under the same terms, with EDPLYGKLFSTYLRPPHTSRGTSQ [H1E] the figure was 2.83; with TDPLYGKLFSTYLRPPHTSRGTSQ [H1T], 3.96. The same measure, in the same setting: with DDPLYGKLFSTYLRPPHTSRGTSQ [H1D] the figure was 3.52; with MDPLYGKLFSTYLRPPHTSRGTSQ [H1M], 2.98; with IDPLYGKLFSTYLRPPHTSRGTSQ [H1I], 3.4.

Consider ADPLYGKLFSTYLRPPHTSRGTSQ [H1A], for which the protein stability index worked out at 4.01. HDCLYGKLFSTYLRPPHTSRGTSQ [P3C]: the protein stability index turned out to be 2.17. Consider HDALYGKLFSTYLRPPHTSRGTSQ [P3A], for which the protein stability index was 2.5.

HDGLYGKLFSTYLRPPHTSRGTSQ [P3G]: the protein stability index was 2.35. As to HDHLYGKLFSTYLRPPHTSRGTSQ [P3H], the protein stability index was 2.98. Still for that read-out and setting: under HDKLYGKLFSTYLRPPHTSRGTSQ [P3K] stands 2.54; under HDELYGKLFSTYLRPPHTSRGTSQ [P3E], 3.14.

On to HDILYGKLFSTYLRPPHTSRGTSQ [P3I], for which the protein stability index came to 2.29. The same measure, in the same setting: under HDFLYGKLFSTYLRPPHTSRGTSQ [P3F] stands 2.12. The same measure, in the same setting: with HDDLYGKLFSTYLRPPHTSRGTSQ [P3D] the figure was 3.02; with HCPLYGKLFSTYLRPPHTSRGTSQ [D2C], 2.28. The same measure, in the same setting: under HYPLYGKLFSTYLRPPHTSRGTSQ [D2Y] stands 2.62; under HVPLYGKLFSTYLRPPHTSRGTSQ [D2V], 1.85. With HMPLYGKLFSTYLRPPHTSRGTSQ [D2M], the protein stability index is 1.91. Take HRPLYGKLFSTYLRPPHTSRGTSQ [D2R]: the protein stability index was 2.63. As to HSPLYGKLFSTYLRPPHTSRGTSQ [D2S], the protein stability index was determined as 2.5. Same read-out and setting: with HEPLYGKLFSTYLRPPHTSRGTSQ [D2E] the figure was 2.74; with HTPLYGKLFSTYLRPPHTSRGTSQ [D2T], 1.98.

For the variant HQPLYGKLFSTYLRPPHTSRGTSQ [D2Q], the protein stability index is 2.44. Still for that read-out and setting: under HPPLYGKLFSTYLRPPHTSRGTSQ [D2P] stands 2.8; under HHPLYGKLFSTYLRPPHTSRGTSQ [D2H], 2.19. The same measure, in the same setting: with HNPLYGKLFSTYLRPPHTSRGTSQ [D2N] the figure was 2.1; with HIPLYGKLFSTYLRPPHTSRGTSQ [D2I], 1.96. Take HGPLYGKLFSTYLRPPHTSRGTSQ [D2G]: the protein stability index was determined as 2.56.

For the variant HWPLYGKLFSTYLRPPHTSRGTSQ [D2W], the protein stability index is 2.86. HKPLYGKLFSTYLRPPHTSRGTSQ [D2K]: the protein stability index came to 2.63.

Regarding HAPLYGKLFSTYLRPPHTSRGTSQ [D2A], the protein stability index is 2.37. The same measure, in the same setting: with HLPLYGKLFSTYLRPPHTSRGTSQ [D2L] the figure was 2.34; with HFPLYGKLFSTYLRPPHTSRGTSQ [D2F], 2.27.
